The target of assay [1] is T1, androgen receptor N-terminus (AR18-500) (Rattus norvegicus, UniProt P15207).
T1 construct: receptor residues 18 through 500 (using the rat androgen receptor number scheme); expressed in transfected cells; host or cells: Saccharomyces cerevisiae EGY188
T1 sequence (P15207 18-500): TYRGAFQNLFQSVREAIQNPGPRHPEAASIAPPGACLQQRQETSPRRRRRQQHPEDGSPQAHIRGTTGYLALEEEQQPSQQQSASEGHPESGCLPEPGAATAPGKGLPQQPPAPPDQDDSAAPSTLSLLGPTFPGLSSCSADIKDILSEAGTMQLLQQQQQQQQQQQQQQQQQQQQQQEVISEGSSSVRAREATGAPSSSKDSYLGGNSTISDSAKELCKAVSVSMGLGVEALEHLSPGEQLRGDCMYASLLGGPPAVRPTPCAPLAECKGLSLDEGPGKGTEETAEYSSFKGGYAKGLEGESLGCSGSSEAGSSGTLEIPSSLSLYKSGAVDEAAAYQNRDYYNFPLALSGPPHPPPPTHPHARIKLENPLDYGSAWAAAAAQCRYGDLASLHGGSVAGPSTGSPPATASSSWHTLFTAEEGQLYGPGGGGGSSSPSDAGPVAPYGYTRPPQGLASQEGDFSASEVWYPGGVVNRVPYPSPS
The assay is described as follows: Modified yeast two-hybrid, quantitative liquid beta-galactosidase assay. The format is binding. Particulars: LexA-ART fusions vs AR18-500; twelve hour incubation in galactose-containing media. The method, then: (§1) The modified yeast two hybrid assay is described in Hittelman et al., 1999. EGY188 was transformed by the lithium acetate method with (i) pJG4-5:AR18-500, (ii) pEG202:LNCaP cell cDNA library and (iii) pJK103, a β-galactosidase reporter gene with a single LexA operator. Potential interacting proteins were selected by plating the cDNA library expressing transformants onto galactose plates lacking leucine and containing X-gal.
Yeast were grown in selective liquid media containing 2% glucose for approximately 12 hours, pelleted, washed once with sterile H2O, normalized according to cell number and resuspended to an optical density (OD600) of 0.15 in 2% galactose/1% raffinose. β-galactosidase assays were performed 12 hours later as described previously (Garabedian et al., 1992).
Out of approximately one million library transformants, eight clones were isolated that interact with the androgen receptor N-terminus. There protein factors were termed ARTs, for Androgen Receptor Trapped, by the present inventors. The eight ART clones were sequenced and were subjected to a database search using the BLAST program. A quantitative liquid beta-galactosidase assay was used to measure the relative strength of interaction between the androgen receptor N-terminus and the ARTs using the yeast two-hybrid system. The levels of expression of the ARTs in yeast were similar, as determined by immunoblotting using an antibody to the LexA DNA-binding domain that is common to all of the ARTs.
ARTs expressed as fusion proteins with the LexA DNA binding domain were analyzed for their ability to interact with AR18-500. The relative strength of interaction was determined by a quantitative liquid beta-galactosidase assay after a twelve hour incubation in galactose-containing media at 30EC. The LexA vector alone gives 1 unit of activity.

The target of assay [2] is T2, androgen receptor ligand-binding domain (579-901) (Rattus norvegicus, UniProt P15207).
T2 construct: expressed in transfected cells; host or cells: yeast (modified two-hybrid assay)
T2 sequence (P15207 579-901): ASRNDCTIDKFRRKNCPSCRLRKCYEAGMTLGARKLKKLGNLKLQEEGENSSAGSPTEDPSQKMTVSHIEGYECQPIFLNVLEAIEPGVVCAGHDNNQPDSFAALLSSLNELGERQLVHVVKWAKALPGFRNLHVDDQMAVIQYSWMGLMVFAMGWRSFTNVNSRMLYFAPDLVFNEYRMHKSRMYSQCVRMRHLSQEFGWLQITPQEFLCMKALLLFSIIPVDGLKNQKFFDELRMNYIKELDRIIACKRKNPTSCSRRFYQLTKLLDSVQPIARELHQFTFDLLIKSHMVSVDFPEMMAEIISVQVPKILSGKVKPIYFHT
Briefly: Modified yeast two-hybrid specificity panel. Particulars: absence or presence of hormone.

Assay [3] addresses T3, androgen receptor (AR) N-terminus (18-500) (Rattus norvegicus, UniProt P15207).
T3 construct: receptor residues 18 through 500 (using the rat androgen receptor number scheme); expressed in transfected cells; host or cells: Saccharomyces cerevisiae EGY188
T3 sequence (P15207 18-500): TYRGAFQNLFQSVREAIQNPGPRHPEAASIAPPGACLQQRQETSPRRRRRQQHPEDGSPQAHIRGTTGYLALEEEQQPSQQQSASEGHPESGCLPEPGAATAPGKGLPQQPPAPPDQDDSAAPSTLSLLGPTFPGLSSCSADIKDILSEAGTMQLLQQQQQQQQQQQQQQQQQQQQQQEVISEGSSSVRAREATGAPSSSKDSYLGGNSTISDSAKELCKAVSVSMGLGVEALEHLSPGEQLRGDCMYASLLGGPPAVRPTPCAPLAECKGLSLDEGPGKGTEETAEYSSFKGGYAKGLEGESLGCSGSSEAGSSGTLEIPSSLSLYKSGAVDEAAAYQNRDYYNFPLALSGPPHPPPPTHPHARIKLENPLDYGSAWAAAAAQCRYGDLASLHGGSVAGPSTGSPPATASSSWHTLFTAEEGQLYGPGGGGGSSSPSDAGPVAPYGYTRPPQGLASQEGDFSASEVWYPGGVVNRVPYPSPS
Briefly: Modified yeast two-hybrid, qualitative plate beta-galactosidase assay. Conditions: AR N-terminus, AR LBD, Sp1A, Sp1B, CREB, TAFII130, GR AF1, SRC-1. The format is binding.
Source text: as §1
To analyze the specificity of ART interaction, the capacity of the strongest androgen receptor N-terminus-interacting factors to associate with a panel of transcriptional regulatory proteins in the modified yeast two-hybrid assay was examined. ART-5, ART-27, and ART-37 were tested for interaction with Sp1A (Sp183-262), Sp1B (Sp1263-524) the cyclic AMP response element binding protein (CREB3-296), TBP-associated factor 130 (TAFII130270-700), the glucocorticoid receptor AF1 (GR107-237), and the steroid receptor coactivator-1 (SRC-1374-800).
The strength of interaction was determined by a qualitative plate beta-galactosidase assay after a 24 hour incubation on galactose X-gal plates at 301 C.
ART-27 derivatives containing amino acids 1-45, 1-67, 1-127, 46-157, 68-157, 127-157, 1-157, and 1-45/127-157 were expressed as fusion proteins with LexA. These derivatives were tested for their ability to interact with the androgen receptor N-terminus (AR18-500). The strength of interaction was determined by a qualitative plate beta-galactosidase assay after a 24 hour incubation on galactose X-gal plates at 301 C.

Take “ART-9: corresponds to ZNF160, a zinc finger containing protein of unknown function”: the “relative strength of interaction with androgen receptor N-terminus” value in assay [1] was “Weak”.
The same measure, in the same setting: the entry for “ART-6: Androgen Receptor Trapped protein, SEQ ID NO:8, an EST (EFGTRLKPYVSYLAPESEETPLTAAQLFSKPLAPCHRKGLQG; Human)” is “Intermediate strength”; for “ART-2: Androgen Receptor Trapped protein, SEQ ID NO:10, present in the EST database (EFGTRIHCPHNPRPTRRSTDHSISPSIDPHLQISHQQPTNHHPTMTNQTNLKTNDNHTQH; Human)” it is “Weak”.

B1: ART-37: Androgen Receptor Trapped protein, SEQ ID NO:6, unknown function, represented in EST database (protein)
chain: EFGTRARFTRGKSALLERALARPRTEVSLSAFALLSPSWYSTARAVFSVAELQSRLAALGRQVGARVLDALVAREKGARRETKVLGALLFVKGAVWKALFGKEADKLEQANDDARTFYIIEREPLINTYISVPKENSTLNCASFTAGIVEAVLTHSGFPAKVTAHWHKGTTLMIKFEEAVIARDRLEGR
modifications: Human
As for B1, the “interaction with androgen receptor ligand binding domain” value in assay [2] is “No interaction”. Besides, in assay [3], the “specificity of interaction among panel of transcriptional regulatory factors” value is on record as “relatively promiscuous”. Moreover, in assay [1], the “relative strength of interaction with androgen receptor N-terminus” value was “strongest”.

(Values after patent US20080081903A1, “METHOD FOR SCREENING TRANSCRIPTIONAL COREGULATORY PROTEINS OF TRANSCRIPTION FACTORS, AND ANDROGEN RECEPTOR TRANSCRIPTIONAL COREGULATORY PROTEINS AS TARGETS FOR ANDROGEN RECEPTOR-DEPENDENT DISEASES” (NEW YORK UNIVERSITY, priority 2001, published 2008).)
